# This sample holds only a part of the variants without activity.
# B1: TPR 5TU (parent)
# chain: GGAUCUUCUCGAUCUAACAAAAAAGACAAAUCUGCCACAAAGCUUGAGAGCAUCUUCGGAUGCAGAGGCGGCAGCCUUCGGUGGCGCGAUAGCGCCAACGUUCUCAACUAUGACACGCAAAACGCGUGCUCCGUUGAAUGGAGUUUAUCAUG
# Variants of: B1
# Experiment: polymerase ribozyme fitness, log enrichment relative to wild type (log ratio); higher = more active; in vitro selection for triplet polymerase activity
# How it was run: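 After PCR construction and transcription, each subunit's mutant library from a heterodimeric triplet polymerase ribozyme was annealed with a biotinylated primer, the partner subunit and triplets. Incubation was frozen, at −7 °C, and extended constructs were gel-excised, bound to streptavidin beads and amplified by RT-PCR, in one selection round done in triplicate. Fitness is the logarithm of a genotype's enrichment divided by that of the wild type, from inverse-variance-weighted replicate averages of Illumina-sequenced inputs and outputs. The base of the logarithm is 2, and genotypes needed ≥10 input reads and ≥1 read per output.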
row,Variant,polymerase ribozyme fitness (log ratio)
1,GGAUCUUCUCGAUUUAACAAAAAAGACAAAUCUGCCACAAAGCUUGAGAGCAUCUUCGGAUGUAGAGGCGGCAGCCUUCGGUGGAGCGAUAGCGCCAACGUUCUCAACUAUGACGCGCAAAACGCGUGCUCCGUUGAAUGGAGUUUAUCAUG [C14U C63U C85A A115G],-3.56
2,GGAUCUUCUCGAUCUAACAAAAAAGACAAAUCUGCCACAAAGCUUGAGAGCAUCAUCGGAUGCAGAGGCGGCAGCCUUCGGUGGCGCGAUAGCUCCAACGUUCUCAAAUAUGACACGCAAAACGCGUGCUCCGUUGAAUGGAGUUUAUCAUG [U55A G94U C108A],≤ -4.2
3,GGAUCUUCUCGAUCUAACAAAAAAGACAAAUCUGCCACAAAGCUUGAGAGCAUCUUCGGAUGCAGAGGCGGCAGCCUUCGGUGGCGCGAUAGUGCCAACGAUCUCAACUAUGACACGCAAAACGCGUGCUCCGUUGAAUGGAGUUUAUCAUG [C93U U101A],-2.19
4,GGAUCUUCUCGAUAUAACAAAAAAGUCAAAUCUGCCACAAAGCUUAAGAGCAUCUUCGGAUGCAGAGGCGGCAGCCUUCGGUGGUGCGAUAGCGCCAACGUUCUAAACUAUGGAACGCAAAACGCGUACUCCGUUGAAUGGAGUUUGUCAUG [C14A A26U G46A C85U C105A A113G C114A G128A A147G],≤ -4.2
5,GGAUCUUCUCGAUCUAACAAAAAAGACAAAUCUGCCACAAAGCUUGAGAGCAUCUUCGGAUGCAGAGGCGGCAGCCUUCGGUGGCGCGUUAGCGCCAACGUGCUCAACUAUGACACGCAAACCGCGUGCUCCGUUGAAUGGAGUUUAUCAUG [A89U U102G A122C],-3.7
6,GGAUCUUCUCGAUCUAACAAAAAAGACAAAUCUGCCACAAAGCUUGAGAGCAUCUACGGAUGCAGAGGCGGCAGCCUUCGGUGGCGCUAUAGCGCCAACGUUCUCAACUAUGAAACGCAAAACGCGUGCUCCGUUGAAUGGAGUUUAUCAUG [U56A G88U C114A],≤ -4.2
7,GGAUCUUCUCGAUCUAGCAAAAAAGACAAAUCUGCCACAAAGCUUGAGAGCAUCUUCGGAUGCAGAGGCGGCAGCCUUCGGUGGCGCGAUAGCGCCAACGUUCUCAACUAUGACACGCAAAACGCGUGCUCCGUUGAAUGGAGUUUUUCAUG [A17G A147U],1.55
8,GGAUCUUCUCGAUCUAACAAAAAAGACAAAUCUGCCACAAAGCUUGAGAGCAUCUUCGGGUGCAGAGGAGGCAGCCUUCGGUGGCGCAAUAGCGGCAACGAUCUCCGCUAUGACACGCCAAACGCGUGCUCCGUUGAAUGGAGUUUAACAUG [A60G C69A G88A C95G U101A A106C A107G A119C U148A],≤ -4.2
9,GGAUCUUCUCGAUGUAACAAAAAAGACGAAUCUGCCACAAAGCUUGAGAGCAACUUCGGAUGUAGAGGCGGCAGCCUUCGGUGGCGCGCUAGCGCCAACGUUCUCUACUAUGACACGCAAAACGCAUGCUCCGUUGAAUGAAGUUUAUCAUG [C14G A28G U53A C63U A89C A106U G126A G141A],≤ -4.2
10,GGAUCUUCUCGAUCUAACAAAAAAGUCAAAUCUGCCACAAAGCUUGAGUGCAUCUUCGGAUGCAGAGUCGGUAGCCUUCGGUGACUCGAUAGCGCCAACGUUCUCAACUAUAACACGCAAAGCGCGUGCUCCGUUGAAUGGAGUUUAUCAUG [A26U A49U G68U C72U G84A G86U G112A A122G],≤ -4.2
11,GGAUCUUCUCGAUCUAACAAAAAAGACAAAUCUGCCACAAAGCUUGAGAGCAUUUUCGGAUGCAGAGGCGGCAGCCUUCGGUGGCGCGAUAGCGCCAACGUUCUCAACUAUGACACGCAAAACGCGUGCUCCGUUGAAUGAAGUUUAUCAGG [C54U G141A U151G],≤ -4.2
12,GGAUCUUCUCGAUCUUACAAAAAAGACAAAUCUGCCACAAAGCUUGAGACCAUCUACGGAUGCAGAGGCGGCAGCCUUCGGUGCCGCGAUAGCGCCUACGAUCUCAACUAUGCCACGCGAAACGCGUGCUCCUUUGUAUGGAGUUUAUCAUG [A16U G50C U56A G84C A97U U101A A113C A119G G133U A137U],≤ -4.2
13,GGAUCUUCUCGAUCUAACAAAAAAGACAAAUCUGCCACAAAGCUUGAGCGCAUCUUCGGAUGCAGAGGCGGCAGCCUUCGGUGGCGAGAUAGCGCCAACGUUCUCAACUAUGACACGCAAAACGCGUGCUCAGUUGAAUGGAGUUUAUCAUG [A49C C87A C132A],≤ -4.2
14,GGAUCUUUUCGAUCUAACAAAUAAGAUAAAUCUGCCACAAAGCUUGAGAGCAUCUUCGGAUGCAGAGGCAGCAGCCUUCGGUGGAGCGUUAUCGCCAACGUUCUCAACUAUGACACGCAAAACGCGUGCUCCGUUGAAUGGAGUUUAUCAUG [C8U A22U C27U G70A C85A A89U G92U],≤ -4.2
15,GGAUCUUCUCGAUCUAACAAAAAAGACAAAUCUGCCACAAAGUUUGAGAGCCUCUUUGGAUGCAGAGGCGGCAGCCUUCGGUAGCGCGCUAGCGCCAACGUUCUCAACUAUGACACGCAAAACGCGUGCUCCGUUGAAUGGAGUUUAUCAUG [C43U A52C C57U G83A A89C],≤ -4.2
16,GGAUCUUCUCGAUCUAACAAAAAAGACAAAUCUGCCACAAAACUUGAGAGCAUCUUCGGAUGCAGAGGCGGCAGCCUUCGGUGGCGCAAUAGGGCCAACGUUCUCAACUAUGACACGCAAAACGCGUGCUCCGUUGAAUGGAGUGUAUAAUG [G42A G88A C93G U145G C149A],≤ -4.2
17,GGAUCUUCUCGAUCUAACAAAAAAGACAAAUCUGCCACAAAGCUUGAGAGCCUCUUCGGAUGCAGAGGCGGCAGCCUUCGGUGGUGCGAUAGCCCCAACGUUCUCAACUAUGACACGCAAAACGCGUGCUCCGUUGAAUGCAGUUUAUCAUG [A52C C85U G94C G141C],-3.45
18,GGAUCUUCUCGAUCUAACAAAAAGGACAAAUCUGCCACAAAGCUUGAGAGCAUCUUCGGAUGCAGAGGCGGCAGCCUUCGGUGGCGAGAUAGCGCCAACGUUCUCAACUAUGACACGCAAAACGCGUGCUCCGUUGAAUGGAGUUUAUCAUG [A24G C87A],≤ -4.2
19,GGAUCUUCUCGAUUUAACAAAAAAGACAAAACUGCCACAAAGCUUGAGAGCAUCUUCGGAUGCCGAGGCGGCAGACUUCGGUGGCGCGAUAGGGCCAACGUUUUCAACUAUGACACGCAAAACGCGUGCUCCGUUGAAUGGAGUUUAUCAUG [C14U U31A A64C C75A C93G C103U],≤ -4.2

# — the RNAGym collection of RNA variant scans (doi:10.1073/pnas.2313332121)
